The target in assay [1] is TF-glycosylated PDTR MUC1 tandem repeat peptide …-T(TF)-…. Kind of assay: antigen ELISA on TF-glycosylated PDTR MUC1 peptide, protein A purified antibodies.
Assay [2] addresses Tn-glycosylated PDTR MUC1 tandem repeat peptide …-T(Tn)-…. Kind of assay: antigen ELISA on Tn-glycosylated PDTR MUC1 peptide, protein A purified antibodies.

Here are results for 1 substance from US20210187118A1.

By EC50 (read off the curve) is commonly meant the concentration that produces a half-maximal response. Higher therefore signals weaker potency.

Sequence of TF-glycosylated PDTR MUC1 tandem repeat peptide …-T(TF)-… (peptide, as listed by the source limits assumed): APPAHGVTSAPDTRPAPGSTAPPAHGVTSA
Sequence of Tn-glycosylated PDTR MUC1 tandem repeat peptide …-T(Tn)-… (peptide, as listed by the source limits assumed): as above

Turning to PankoMab N54W (antibody), the EC50 (read off the curve) was found to be 8 ng/mL in assay [1] and 10 ng/mL in assay [2].
